{"source": "paper PMC2702275", "about": "“TIPT2 and geminin interact with basal transcription factors to synergize in transcriptional regulation”", "molecules": {"B1": {"name": "AdMLPm5 (dsDNA)", "DNA 1": "AAGGGGGGTGATAAAAGGGGGTGGG", "DNA 2": "CCCACCCCCTTTTATCACCCCCCTT"}, "B2": {"name": "AdMLP (-40 to -16) (dsDNA)", "DNA 1": "AAGGGGGGCTATAAAAGGGGGTGGG", "DNA 2": "CCCACCCCCTTTTATAGCCCCCCTT"}, "B3": {"name": "AdMLPm2 (dsDNA)", "DNA 1": "AATTGGGGCTATAAAAGGGGGTGGG", "DNA 2": "CCCACCCCCTTTTATAGCCCCAATT"}, "B4": {"name": "AdE4 (dsDNA)", "DNA 1": "GATCCGGAGTATATATAGGACCTTG", "DNA 2": "CAAGGTCCTATATATACTCCGGATC"}, "B5": {"name": "AdMLPm4 (dsDNA)", "DNA 1": "AAGGGGTTCTATAAAAGGGGGTGGG", "DNA 2": "CCCACCCCCTTTTATAGAACCCCTT"}, "B6": {"name": "AdMLPm6 (dsDNA)", "DNA 1": "AAGGGGGGCTATAAAATTGGGTGGG", "DNA 2": "CCCACCCAATTTTATAGCCCCCCTT"}, "B7": {"name": "AdMLPm8 (dsDNA)", "DNA 1": "AAGGGGGGCTATAAAAGGGGTGGGG", "DNA 2": "CCCCACCCCTTTTATAGCCCCCCTT"}, "B8": {"name": "AdMLPm1 (dsDNA)", "DNA 1": "AAGGGGGGCTGTAAAAGGGGGTGGG", "DNA 2": "CCCACCCCCTTTTACAGCCCCCCTT"}, "B9": {"name": "AdMLPm9 (dsDNA)", "DNA 1": "AAGGGGGGCTATAAAAGGGGGTTTT", "DNA 2": "AAAACCCCCTTTTATAGCCCCCCTT"}, "B10": {"name": "AdMLPm7 (dsDNA)", "DNA 1": "AAGGGGGGCTATAAAAGGTTGTGGG", "DNA 2": "CCCACAACCTTTTATAGCCCCCCTT"}}, "key": {"[1]": {"molecular_target": "GST-TIPT2 (TATA-binding protein-like factor-interacting protein, isoform 2) (mouse) (UniProt Q6P926)"}, "[2]": {"molecular_target": "T1, GST-TIPT2 (TIPT isoform 2) (mouse, UniProt Q6P926 1-205)", "T1 sequence": "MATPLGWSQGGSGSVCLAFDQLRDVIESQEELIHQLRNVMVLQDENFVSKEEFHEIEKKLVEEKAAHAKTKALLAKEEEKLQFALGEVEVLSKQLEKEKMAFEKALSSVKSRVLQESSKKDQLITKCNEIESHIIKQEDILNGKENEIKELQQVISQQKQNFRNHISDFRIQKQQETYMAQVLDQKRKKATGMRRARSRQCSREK", "conditions": "protein: recombinant; tags: N-terminal GST"}, "[3]": {"molecular_target": "T1, GST-TIPT2 (TIPT isoform 2)", "conditions": "protein: recombinant, tags: N-terminal GST"}, "[4]": {"molecular_target": "T2, TBP (human, UniProt P20226 1-339)", "T2 sequence (P20226 whole entry)": "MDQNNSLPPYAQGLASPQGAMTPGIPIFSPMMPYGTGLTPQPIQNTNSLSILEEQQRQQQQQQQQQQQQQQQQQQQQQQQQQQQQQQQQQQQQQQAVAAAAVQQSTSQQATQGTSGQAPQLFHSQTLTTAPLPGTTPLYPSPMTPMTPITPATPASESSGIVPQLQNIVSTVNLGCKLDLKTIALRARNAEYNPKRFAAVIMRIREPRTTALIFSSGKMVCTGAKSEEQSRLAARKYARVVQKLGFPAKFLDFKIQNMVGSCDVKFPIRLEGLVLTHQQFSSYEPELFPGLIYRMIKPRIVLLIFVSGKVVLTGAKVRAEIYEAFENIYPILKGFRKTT", "conditions": "protein: recombinant"}, "[5]": {"molecular_target": "T1, GST-TIPT2 (TIPT isoform 2)", "conditions": "protein: recombinant; tags: N-terminal GST; label: radiolabel"}, "[6]": {"molecular_target": "T2, TBP", "conditions": "protein: recombinant; label: radiolabel"}}, "note": "Where two headings read alike, the source gives them in different places."}
{"molecule": "in vitro translated geminin (from UniProt O88513 1-206) (natural protein)", "values": [{"measurement": "luciferase reporter in U2OS cells: activation of the AdMLP, co-transfection of geminin with TIPT2", "setting": "[1]", "value": 11, "unit": "fold"}, {"measurement": "luciferase reporter in U2OS cells: activation of the AdMLP, triple transfection of TBP, TIPT2 and geminin", "setting": "[1]", "value": 16, "unit": "fold"}]}
{"molecule": "B1", "values": [{"measurement": "binding result", "setting": "[2]", "value": "binds"}]}
{"molecule": "B2", "values": [{"measurement": "binding result", "setting": "[3]", "value": "binds"}, {"measurement": "binding result", "setting": "[4]", "value": "binds"}]}
{"molecule": "B3", "values": [{"measurement": "binding result", "setting": "[3]", "value": "binds"}]}
{"molecule": "B4", "values": [{"measurement": "binding result", "setting": "[5]", "value": "no binding"}, {"measurement": "binding result", "setting": "[4]; label: radiolabel", "value": "binds"}]}
{"molecule": "B5", "values": [{"measurement": "binding result", "setting": "[3]", "value": "binds"}]}
{"molecule": "B6", "values": [{"measurement": "binding result", "setting": "[3]", "value": "binds"}]}
{"molecule": "B7", "values": [{"measurement": "binding result", "setting": "[3]", "value": "binds"}]}
{"molecule": "B8", "values": [{"measurement": "binding result", "setting": "[6]", "value": "no binding"}, {"measurement": "binding result", "setting": "[3]; label: radiolabel", "value": "binds"}]}
{"molecule": "B9", "values": [{"measurement": "binding result", "setting": "[3]", "value": "binds"}]}
{"molecule": "B10", "values": [{"measurement": "binding result", "setting": "[3]", "value": "binds"}]}
